Our source for the protein stability index values is the supplement of paper PMC10567573.

B1: CD69 (parent)
chain: FVAENSSLHPESGQENDATSPHFS
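Further: lentivirally expressed fusions sorted by FACS into six bins by GFP to DsRed ratio, PSI derived from sequencing read proportions per bin multiplied by bin number.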

In this data set the parent is B1. As to the kind of experiment: protein stability index of a GFP-peptide fusion (GPS, HEK-293T) (PSI 1-6); higher = more stable. Particulars: c terminus: a fixed tail appended.
Turning to FVAENSSLHPESGQENDALSPHFS [T19L], the protein stability index is 2.6.

Turning to FVAENSSLHPESGQENDAWSPHFS [T19W], the protein stability index was found to be 2.75.

As to FVAENHSLHPESGQENDATSPHFS [S6H], the protein stability index was 3.01.

Consider FVAENASLHPESGQENDATSPHFS [S6A], for which the protein stability index was found to be 2.96. Consider FVAENKSLHPESGQENDATSPHFS [S6K], for which the protein stability index was found to be 2.72. Next, FVAENVSLHPESGQENDATSPHFS [S6V]: 2.48; FVAENDSLHPESGQENDATSPHFS [S6D]: 4.33; FVAENPSLHPESGQENDATSPHFS [S6P]: 2.58. Next, FVAENRSLHPESGQENDATSPHFS [S6R]: 2.27; FVAENWSLHPESGQENDATSPHFS [S6W]: 2.07; FVAENESLHPESGQENDATSPHFS [S6E]: 4.05. Next, FVAENQSLHPESGQENDATSPHFS [S6Q]: 3.08; FVAENSSLYPESGQENDATSPHFS [H9Y]: 2.88; FVAENSSLWPESGQENDATSPHFS [H9W]: 1.61. For the variant FVAENSSLIPESGQENDATSPHFS [H9I], the protein stability index came out at 2.9. Next, FVAENSSLFPESGQENDATSPHFS [H9F]: 2.95; FVAENSSLEPESGQENDATSPHFS [H9E]: 4.49.

Regarding FVAENSSLDPESGQENDATSPHFS [H9D], the protein stability index amounted to 3.8. In the case of FVAENSSLHPNSGQENDATSPHFS [E11N], the protein stability index is 3.21.

As for FVAENSSLHPVSGQENDATSPHFS [E11V], the protein stability index came to 2.38. For FVAENSSLHPCSGQENDATSPHFS [E11C], the protein stability index turned out to be 1.96. Consider FVAENSSLHPISGQENDATSPHFS [E11I], for which the protein stability index was found to be 2.39.

As for FVAENSSLHPMSGQENDATSPHFS [E11M], the protein stability index was 2.36. Next, FVAENSSLHPYSGQENDATSPHFS [E11Y]: 2.22; FVAENSSLHPGSGQENDATSPHFS [E11G]: 2.46; FVAENSSLHPTSGQENDATSPHFS [E11T]: 2.84. In the case of FVAENSSLHPPSGQENDATSPHFS [E11P], the protein stability index came to 2.55.

As to FVAINSSLHPESGQENDATSPHFS [E4I], the protein stability index was 2.42. Next, FVAPNSSLHPESGQENDATSPHFS [E4P]: 3.51; FVANNSSLHPESGQENDATSPHFS [E4N]: 2.87. Consider FVAQNSSLHPESGQENDATSPHFS [E4Q], for which the protein stability index came to 3.31. FVAENSSLHPESGEENDATSPHFS [Q14E]: the protein stability index was determined as 3.51. Next, FVAENSSLHPESGFENDATSPHFS [Q14F]: 2.84. Next, FVAENSSLHPESGWENDATSPHFS [Q14W]: 2.48; FVAENSSLHPESGVENDATSPHFS [Q14V]: 3.2; FVAENSSLHPESGMENDATSPHFS [Q14M]: 3.28.

Turning to FVAENSSLHPESGGENDATSPHFS [Q14G], the protein stability index was 2.58. Next, FVAENSSLHPESGHENDATSPHFS [Q14H]: 3.47.

Turning to FVAENSSLHPESGLENDATSPHFS [Q14L], the protein stability index was found to be 2.87.

Regarding FVAENSSLHPESGDENDATSPHFS [Q14D], the protein stability index amounted to 3.93.

In the case of FVAEHSSLHPESGQENDATSPHFS [N5H], the protein stability index turned out to be 2.61.

As to FVAEFSSLHPESGQENDATSPHFS [N5F], the protein stability index came out at 1.94.

In the case of FVAEMSSLHPESGQENDATSPHFS [N5M], the protein stability index was 2.45. Consider FVAEVSSLHPESGQENDATSPHFS [N5V], for which the protein stability index is 2.96. Next, FVAEPSSLHPESGQENDATSPHFS [N5P]: 2.56; FVAETSSLHPESGQENDATSPHFS [N5T]: 2.77. Next, FVAEGSSLHPESGQENDATSPHFS [N5G]: 3.21; FVAENSSLHPESGQGNDATSPHFS [E15G]: 2.59. Next, FVAENSSLHPESGQLNDATSPHFS [E15L]: 2.12; FVAENSSLHPESGQINDATSPHFS [E15I]: 2.51; FVAENSSLHPESGQRNDATSPHFS [E15R]: 2.19. With FVAENSSLHPESGQHNDATSPHFS [E15H], the protein stability index turned out to be 2.76.

In the case of FVAENSSLHPESGQMNDATSPHFS [E15M], the protein stability index was determined as 2.83. Next, FVAENSSLHPESGQANDATSPHFS [E15A]: 2.88; FVMENSSLHPESGQENDATSPHFS [A3M]: 3.11; FVLENSSLHPESGQENDATSPHFS [A3L]: 2.95. Next, FVQENSSLHPESGQENDATSPHFS [A3Q]: 3.27; FVSENSSLHPESGQENDATSPHFS [A3S]: 2.56. Next, FVYENSSLHPESGQENDATSPHFS [A3Y]: 3.02; FVCENSSLHPESGQENDATSPHFS [A3C]: 2.73; FVWENSSLHPESGQENDATSPHFS [A3W]: 2.82. Consider FVTENSSLHPESGQENDATSPHFS [A3T], for which the protein stability index is 3.12.

Consider FVAENSSLHPESGQENDATFPHFS [S20F], for which the protein stability index is 2.32.

FVAENSSLHPESGQENDATLPHFS [S20L]: the protein stability index is 3.02. For the variant FVAENSSLHPESGQENDATRPHFS [S20R], the protein stability index amounted to 2.45. As for FVAENSSLHPESGQENDATCPHFS [S20C], the protein stability index worked out at 2.78. Next, FVAENSSLHPESGQENDATEPHFS [S20E]: 3.75; FVAENSSLHPESGQENDATNPHFS [S20N]: 2.71. Next, FVAENSSLHPESGQENDATVPHFS [S20V]: 2.68; FVAENSSLHPESGQENDATGPHFS [S20G]: 3.17.

Consider FVAENSSLHPESGQENDATWPHFS [S20W], for which the protein stability index was 2.09. Regarding FVAENSSLHHESGQENDATSPHFS [P10H], the protein stability index came out at 3.61. Next, FVAENSSLHIESGQENDATSPHFS [P10I]: 3.23; FVAENSSLHKESGQENDATSPHFS [P10K]: 2.98; FVAENSSLHVESGQENDATSPHFS [P10V]: 3.22.

Consider FVAENSSLHDESGQENDATSPHFS [P10D], for which the protein stability index was found to be 3.32. In the case of FVAENSSLHSESGQENDATSPHFS [P10S], the protein stability index was found to be 2.52. Next, FVAENSSLHYESGQENDATSPHFS [P10Y]: 3.15; FVAENSSLHRESGQENDATSPHFS [P10R]: 2.56. On to FVAENSSLHPESGQENNATSPHFS [D17N], for which the protein stability index was 2.95.

For the variant FVAENSSLHPESGQENLATSPHFS [D17L], the protein stability index was 2.56. Next, FVAENSSLHPESGQENWATSPHFS [D17W]: 1.92; FVAENSSLHPESGQENFATSPHFS [D17F]: 2.05. FVAENSSLHPESGQENKATSPHFS [D17K]: the protein stability index worked out at 2.2.

In the case of FVAENSSLHPESGQENSATSPHFS [D17S], the protein stability index was 2.73. Next, FVAENSSLHPESGQENPATSPHFS [D17P]: 2.76. For the variant FVAENSSLHPESGQENDATSFHFS [P21F], the protein stability index came to 2.91. Next, FVAENSSLHPESGQENDATSEHFS [P21E]: 3.97; FVAENSSLHPESGQENDATSDHFS [P21D]: 3.6.

In the case of FVAENSSLHPESGQENDATSYHFS [P21Y], the protein stability index stood at 2.62. Next, FVAENSSLHPESGQENDATSQHFS [P21Q]: 3.15; FVAENSSLHPESGQENDATSKHFS [P21K]: 3.25; FVAENSSLHPESGQENDATSHHFS [P21H]: 2.46.

Turning to FVAENSSLHPESGQENDATSSHFS [P21S], the protein stability index stood at 2.98.
